Molecular target: human octamer-binding transcription factor 4 (OCT4), endogenous in NCCIT and NTERA-2 cells (UniProt Q01860)
UniProt Q01860, sequence (Q01860 whole entry, looked up): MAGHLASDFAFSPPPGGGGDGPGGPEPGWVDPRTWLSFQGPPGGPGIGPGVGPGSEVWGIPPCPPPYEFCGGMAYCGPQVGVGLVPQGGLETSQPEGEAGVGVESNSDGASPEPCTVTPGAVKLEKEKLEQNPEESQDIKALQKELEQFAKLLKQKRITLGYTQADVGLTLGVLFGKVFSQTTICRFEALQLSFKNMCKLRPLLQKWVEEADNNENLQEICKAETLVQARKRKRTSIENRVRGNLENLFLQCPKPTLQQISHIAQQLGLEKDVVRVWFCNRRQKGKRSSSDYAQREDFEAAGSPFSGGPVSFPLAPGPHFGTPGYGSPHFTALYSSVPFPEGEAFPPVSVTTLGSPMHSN

protein phosphatase 1 (PP1), endogenous in NCCIT and NTERA-2 cells
phosphorylated OCT4 after doxycycline-dependent shRNA suppression of PP1 (western blotting and immunofluorescence staining): when the expression of PP1 was suppressed using doxycycline, the phosphorylated OCT4 was increased
phosphorylation of OCT4 after okadaic acid treatment (western blotting and immunofluorescence staining): when PP1 was inhibited, the phosphorylation of OCT4 was increased

— patent publication US20210069289
